Ends that are not written are not given here. * marks the point of attachment. Biotin = O=C1N[C@H]2[C@H](CS[C@H]2CCCCC(=O)*)N1
Key:
Experiment in all cases: peptide or protein array; E. coli proteome chip: purified His-tagged proteins printed in duplicate on Fullmoon slides, blocked with 1% BSA; 10 nM N-terminal biotinylated LfcinB with 1% BSA, room temperature, 1 h; detected with DyLight 649-labeled streptavidin, ratio to DyLight 549-labeled anti-His antibody; ProCAT normalisation, local cut-off; triplicate chips
Settings in all cases: both partners purified
YihS = target: T1, YihS (E. coli K-12, UniProt P32140 1-413)
T1 construct: YihS, E. coli K-12
T1 sequence (looked up): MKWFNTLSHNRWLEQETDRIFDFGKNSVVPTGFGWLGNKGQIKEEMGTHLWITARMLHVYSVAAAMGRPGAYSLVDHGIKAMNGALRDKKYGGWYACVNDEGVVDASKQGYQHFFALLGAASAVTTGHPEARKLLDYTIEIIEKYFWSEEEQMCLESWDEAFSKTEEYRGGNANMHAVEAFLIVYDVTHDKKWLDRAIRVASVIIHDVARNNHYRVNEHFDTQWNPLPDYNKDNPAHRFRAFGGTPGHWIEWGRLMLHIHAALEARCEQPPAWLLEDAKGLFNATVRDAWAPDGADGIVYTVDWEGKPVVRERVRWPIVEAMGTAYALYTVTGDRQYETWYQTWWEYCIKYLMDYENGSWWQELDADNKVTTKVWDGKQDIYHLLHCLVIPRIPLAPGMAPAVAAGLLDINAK

MetL = target: T2, MetL (E. coli K-12, UniProt P00562 1-810)
T2 construct: MetL, E. coli K-12
T2 sequence (looked up): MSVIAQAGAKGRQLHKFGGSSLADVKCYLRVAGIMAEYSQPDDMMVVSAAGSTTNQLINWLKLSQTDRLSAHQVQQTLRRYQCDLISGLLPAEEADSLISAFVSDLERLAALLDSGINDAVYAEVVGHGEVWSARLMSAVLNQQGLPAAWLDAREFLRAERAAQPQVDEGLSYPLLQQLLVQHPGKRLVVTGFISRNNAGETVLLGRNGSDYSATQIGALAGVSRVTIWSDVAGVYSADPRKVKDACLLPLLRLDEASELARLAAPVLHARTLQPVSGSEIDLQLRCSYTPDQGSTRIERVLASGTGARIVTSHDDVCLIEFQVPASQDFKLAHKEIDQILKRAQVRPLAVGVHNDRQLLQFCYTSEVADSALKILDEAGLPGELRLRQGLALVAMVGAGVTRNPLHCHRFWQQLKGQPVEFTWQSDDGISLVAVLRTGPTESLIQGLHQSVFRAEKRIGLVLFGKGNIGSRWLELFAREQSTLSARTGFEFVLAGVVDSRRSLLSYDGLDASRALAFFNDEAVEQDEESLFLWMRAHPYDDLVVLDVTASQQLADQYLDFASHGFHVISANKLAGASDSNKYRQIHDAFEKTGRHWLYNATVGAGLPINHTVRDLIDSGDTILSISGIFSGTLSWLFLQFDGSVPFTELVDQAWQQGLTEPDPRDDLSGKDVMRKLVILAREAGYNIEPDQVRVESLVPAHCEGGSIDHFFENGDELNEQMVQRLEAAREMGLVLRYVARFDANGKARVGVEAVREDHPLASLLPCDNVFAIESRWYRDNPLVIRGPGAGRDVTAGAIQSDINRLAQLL

AmiA = target: T3, AmiA (E. coli K-12, UniProt P36548 35-289)
T3 construct: AmiA, E. coli K-12
T3 sequence (looked up): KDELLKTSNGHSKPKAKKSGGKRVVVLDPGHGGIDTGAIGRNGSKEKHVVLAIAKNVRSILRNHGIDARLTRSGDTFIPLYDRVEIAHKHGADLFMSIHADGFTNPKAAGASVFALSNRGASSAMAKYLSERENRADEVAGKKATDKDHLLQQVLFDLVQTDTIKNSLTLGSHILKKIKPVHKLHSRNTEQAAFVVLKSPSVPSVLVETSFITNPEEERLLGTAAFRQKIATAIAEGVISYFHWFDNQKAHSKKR

YjeJ = target: T4, YjeJ (E. coli K-12, UniProt P39279 1-289)
T4 construct: YjeJ, E. coli K-12
T4 sequence (looked up): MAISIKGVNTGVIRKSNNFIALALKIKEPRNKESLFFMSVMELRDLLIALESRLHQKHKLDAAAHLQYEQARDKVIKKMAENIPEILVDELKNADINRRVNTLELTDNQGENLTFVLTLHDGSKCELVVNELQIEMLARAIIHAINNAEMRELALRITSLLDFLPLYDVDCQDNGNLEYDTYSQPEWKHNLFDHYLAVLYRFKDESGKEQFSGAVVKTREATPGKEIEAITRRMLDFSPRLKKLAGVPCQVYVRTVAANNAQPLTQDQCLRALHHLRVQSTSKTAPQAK

YciT = target: T5, YciT (E. coli K-12, UniProt P76034 1-249)
T5 construct: YciT, E. coli K-12
T5 sequence (looked up): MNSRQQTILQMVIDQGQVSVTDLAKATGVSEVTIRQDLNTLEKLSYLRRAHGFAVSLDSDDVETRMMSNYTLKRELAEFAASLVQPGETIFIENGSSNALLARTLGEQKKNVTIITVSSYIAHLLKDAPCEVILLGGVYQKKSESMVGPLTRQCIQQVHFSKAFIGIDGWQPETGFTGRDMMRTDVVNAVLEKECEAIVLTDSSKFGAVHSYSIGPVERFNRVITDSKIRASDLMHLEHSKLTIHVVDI

Measured: binding result

B1: N-terminal biotinylated Lactoferricin B (peptide, UniProt P24627 36-60, looked up)
peptide: Biotin-FKCRRWQWRMKKLGAPSITCVRRAF
modifications: ends and bridges not checked
notes: lactoferricin B (LfcinB), cationic antimicrobial peptide of 25 amino acids; also called biotinylated LfcinB; biotin-labeled LfcinB; source: bought: Kelowna Inc
binds: YihS | MetL | AmiA | YjeJ | YciT

Reference: article PMC3229523, “Identification of Lactoferricin B Intracellular Targets Using an Escherichia coli Proteome Chip” (PLoS ONE, 2011)
